Reference: paper PMC9696751
Ends that are not written are not given here.

Target: nano-HER2-E3 (UniProt P04637)
Test: SEC; analytical chromatography on Superdex 200 Increase 5/150 GL; equimolar mixtures

formation of the complexes (percent): < 95%
B1: 647-C-K3 (peptide)
peptide: C(Alexa‑647 maleimide)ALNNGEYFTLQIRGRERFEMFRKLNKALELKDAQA
